The target in assay [1] is T1, HER3 on HER3-transfected SP 2/0 cells (human, UniProt P21860 20-1342).
T1 construct: whole, on cells; The flow cytometry text says only 'HER3 transfected SP2/0 cells'; also called human HER3 expressing SP 2/0 cells
The assay can be described thus: flow cytometry, HER3-transfected SP2/0 cells stained with 1 µg/ml antibody, PE-goat anti-mouse IgG. Here is the method:
The average OD values of triplicates are presented. […] EGFR, HER2 or HER3-transfected SP 2/0 cells were stained with 1 μg/ml of purified antibody, followed by PE-goat anti-mouse IgG.
An ELISA plate was coated with 1 μg/ml of recombinant soluble EGFR, HER2, or the extracellular domain of HER3.
Background: Flow cytometry measures light scatter and fluorescence of single cells or particles in a stream.

Assay [2] concerns the target T2, recombinant soluble HER3 (extracellular domain) (UniProt P21860 20-643, limits assumed).
T2 construct: extracellular domain; also called ERBB3
Description: NRG1 competition ELISA on coated recombinant soluble HER3. In general terms: In an ELISA, binding on a coated surface is turned into a signal by an enzyme label.

We go through two molecules from patent publication US20140314774A1 (UAB RESEARCH FOUNDATION, published 2014).

T1 sequence (P21860 20-1342): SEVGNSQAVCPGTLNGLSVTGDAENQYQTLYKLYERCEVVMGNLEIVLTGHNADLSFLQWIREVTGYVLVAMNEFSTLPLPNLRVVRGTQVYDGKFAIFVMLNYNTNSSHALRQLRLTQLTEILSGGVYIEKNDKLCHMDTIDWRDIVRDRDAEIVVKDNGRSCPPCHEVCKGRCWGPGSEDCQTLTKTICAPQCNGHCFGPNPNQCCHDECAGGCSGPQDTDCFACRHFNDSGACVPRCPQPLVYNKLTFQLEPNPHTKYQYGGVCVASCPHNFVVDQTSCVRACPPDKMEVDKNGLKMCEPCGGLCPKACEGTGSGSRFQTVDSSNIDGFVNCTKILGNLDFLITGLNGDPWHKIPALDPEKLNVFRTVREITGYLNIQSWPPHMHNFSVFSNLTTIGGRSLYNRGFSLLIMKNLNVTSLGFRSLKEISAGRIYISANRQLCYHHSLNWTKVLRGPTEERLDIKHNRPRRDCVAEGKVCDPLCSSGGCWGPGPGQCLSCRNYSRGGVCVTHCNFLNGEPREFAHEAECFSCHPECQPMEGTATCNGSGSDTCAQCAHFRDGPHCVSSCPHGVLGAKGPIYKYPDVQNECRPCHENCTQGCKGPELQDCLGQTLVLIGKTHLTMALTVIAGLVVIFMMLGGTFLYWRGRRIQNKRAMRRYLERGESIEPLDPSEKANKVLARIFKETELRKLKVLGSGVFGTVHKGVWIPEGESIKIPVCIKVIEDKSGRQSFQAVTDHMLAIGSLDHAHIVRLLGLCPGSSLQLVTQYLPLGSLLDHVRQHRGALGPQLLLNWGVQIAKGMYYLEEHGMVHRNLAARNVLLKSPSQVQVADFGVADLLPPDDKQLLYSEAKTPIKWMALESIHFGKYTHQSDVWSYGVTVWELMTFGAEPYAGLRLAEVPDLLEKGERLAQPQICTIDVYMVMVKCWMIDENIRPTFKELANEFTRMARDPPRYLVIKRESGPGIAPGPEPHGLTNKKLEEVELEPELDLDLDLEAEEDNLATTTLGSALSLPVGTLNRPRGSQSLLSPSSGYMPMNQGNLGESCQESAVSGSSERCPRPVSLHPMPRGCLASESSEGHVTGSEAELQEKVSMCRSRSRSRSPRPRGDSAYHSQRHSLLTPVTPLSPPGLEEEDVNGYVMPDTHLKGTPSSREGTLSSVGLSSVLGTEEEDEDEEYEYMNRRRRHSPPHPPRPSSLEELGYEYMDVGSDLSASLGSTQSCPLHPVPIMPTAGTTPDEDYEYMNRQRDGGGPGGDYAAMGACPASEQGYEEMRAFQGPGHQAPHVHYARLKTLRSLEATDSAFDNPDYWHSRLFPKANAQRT
T2 sequence (P21860 20-643 limits assumed): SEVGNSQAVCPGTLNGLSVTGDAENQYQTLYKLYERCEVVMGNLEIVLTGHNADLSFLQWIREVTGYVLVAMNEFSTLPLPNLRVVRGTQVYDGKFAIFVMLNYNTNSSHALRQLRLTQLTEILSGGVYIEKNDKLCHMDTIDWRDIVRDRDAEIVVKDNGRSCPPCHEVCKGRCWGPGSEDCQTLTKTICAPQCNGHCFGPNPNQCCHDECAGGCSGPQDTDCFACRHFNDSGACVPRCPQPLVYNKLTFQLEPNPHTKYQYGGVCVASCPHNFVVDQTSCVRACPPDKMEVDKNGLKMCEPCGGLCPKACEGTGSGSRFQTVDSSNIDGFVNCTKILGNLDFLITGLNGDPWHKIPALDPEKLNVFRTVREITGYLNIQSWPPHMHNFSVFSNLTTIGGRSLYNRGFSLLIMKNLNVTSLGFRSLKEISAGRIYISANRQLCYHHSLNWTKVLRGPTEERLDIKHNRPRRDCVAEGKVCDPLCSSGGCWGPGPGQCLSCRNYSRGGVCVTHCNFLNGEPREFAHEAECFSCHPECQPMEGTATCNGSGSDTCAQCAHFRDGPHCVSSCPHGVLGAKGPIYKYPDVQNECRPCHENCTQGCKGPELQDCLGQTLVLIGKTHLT

B1: 3D4 antibody (antibody, V domains shown)
VH: QVQLQQSGPELVKPGASVRISCKASGYTFTNYFLHWMKQRPGQGLEWIGWIYPGNVNTKYSEKFKGKATLTADKSSSTAYMQLSSLTSEDSAVYFCARSTYYSMDYWGQGTSVTVSS
VL: DIVLTQSPASLAVSLGQRATISCRASESVDSYGNSFMNWYQQKPGQPPKVLIYRASNLESGIPARFSGSGSRTDFTLTITPVEADDVATYYCQQSYEDPPTFGGGTKLEIK
notes: Mouse monoclonal antibody raised against human HER3 expressing SP 2/0 cells; also called ligand-dependent HER3 antibody
As to B1, the binding result in assay [1] and in assay [2] was “binds” in each case.

B2: 1A5 antibody (antibody, V domains shown)
VH: QVQLQQSGAELARPGASVKLSCKASGYTFTDNYINWMKQRPGQGLEWIGEIYPGSGNTYYNEKFKGKATLTADKSSSTAYMQLSSLTSEESAVYFCARSPNLRLYYFDYWGQGTTLTVSS
VL: DIVMTQSPATLSVTPGDRVSLSCRASQSINDYLYWYQQKLHESPRLLIKFASHSISGIPSRFSGSGSGSDFTLSINSVEPEDVGVYYCQNGHSFPLTFGAGTKLELK
notes: Hybridoma monoclonal antibody detected with goat anti-mouse IgG; also called ligand-independent HER3 antibody
For the molecule B2, the binding result in assay [1] and in assay [2] was “binds” each time.
